The values below come from patent US6872537B1, “Assays for the detection of microtubule depolymerization inhibitors” (Regents of the University of California, priority 1998, dated 2005).

For data set [1] the following is noted: literature values for comparison; cited from earlier work.
Data set [2] deals with Taxol-stabilized, rhodamine-labeled microtubules. Description: Microscope-based microtubule severing assay. It counts as biochemical. As to the method:
Microscope-based severing assays were performed using previously published procedures (McNally and Vale (1993) Cell, 75: 419-429), except that microtubules were immobilized by first perfusing flow cells with a bacterially expressed kinesin mutant that binds strongly to microtubules but is unable to hydrolyze ATP (K560, G234A mutant; R. Vale and E. Taylor, unpublished results). Assays were performed in 20 mM Hepes (pH 7.5), 2 mM MgCl2, 1 mM ATP with an oxygen scavenger system consisting of glucose oxidase (220 μg/ml), catalase (36 μg/ml), glucose (22.5 mM), and 2-mercaptoethanol (71.5 mM). Images were captured using a cooled, slow-scan CCD (Photometerics) and processed using Adobe Photoshop.

A short description of data set [3]: ATPase assay (modified malachite green method). It counts as biochemical, Strongylocentrotus purpuratus. The protocol:
ATPase activity was measured by a modified malachite green method (Kodama et al. (1986) J. Biochem. 99: 1465-1472). ATPase reactions of 50-100 μl, were carried out in a buffer previously used for measuring the ATPase activity of native katanin [20 mM K-HEPES pH 8.0, 25 mM potassium glutamate 2 mM MgCl2, 10% glycerol (v/v), 0.02% Triton X-100 (w/v), 1 mg/ml BSA] (McNally and Vale (1993) Cell, 75: 419-429), except that soybean trypsin inhibitor (SBTI) was replaced by BSA as a carrier protein because SBTI increased background phosphate contamination. An ATP regenerating system, consisting of 0.5-1.0 mM phosphoenol pyruvate and 2 units of pyruvate kinase, was included to minimize the inhibition by ADP observed previously for native katanin (McNally and Vale (1993) Cell, 75: 419-429). Microtubules were prepared from bovine brain tubulin (Hyman et al. (1990) Meth. Enzymol. 196: 303-319; and Williams and Lee (1982) Meth Enzymol. 85B: 376-385). After assembly, microtubules were sedimented (230,000×g; 10 min), resuspended in ATPase buffer lacking BSA, and the polymers were resuspended by repeated passage through a 27 gauge needle. Microtubule concentration was determined by measuring the absorbance at 275 nm in 6 M guanidine HCl by using a molecular mass of 110 kDa and an extinction coefficient of 1.03 ml mg^−1 cm^−1 (Hackney (1988) Proc. Natl. Acad. Sci. USA, 85: 6314-6318). ATPase reactions were carried out at room temperature, and were initiated by addition of katanin.

Another data set concerns microtubules. Put plainly: DAPI fluorescence microtubule disassembly (severing) assay. It counts as biochemical, bovine. The following applies: 2 μM microtubules, 0.2 μM protein. The protocol:
ATPase activity was measured by a modified malachite green method (Kodama et al. (1986) J. Biochem. 99: 1465-1472). ATPase reactions of 50-100 μl, were carried out in a buffer previously used for measuring the ATPase activity of native katanin [20 mM K-HEPES pH 8.0, 25 mM potassium glutamate 2 mM MgCl2, 10% glycerol (v/v), 0.02% Triton X-100 (w/v), 1 mg/ml BSA] (McNally and Vale (1993) Cell, 75: 419-429), except that soybean trypsin inhibitor (SBTI) was replaced by BSA as a carrier protein because SBTI increased background phosphate contamination. […] Microtubule concentration was determined by measuring the absorbance at 275 nm in 6 M guanidine HCl by using a molecular mass of 110 kDa and an extinction coefficient of 1.03 ml mg^−1 cm^−1 (Hackney (1988) Proc. Natl. Acad. Sci. USA, 85: 6314-6318). […]
DAPI severing assays were performed using conditions where the change in fluorescence intensity was linear with the amount of tubulin polymer added (Heusele et al. (1987) Eur. J. Biochem. 165: 613-620). […] The reaction volume was 80 μL, and fluorescence intensity was measured by exciting at 370 nm, and measuring the emission at 450 nm using a model 8100 fluorimeter (SLM Instruments) in photon counting mode.

B1: NSF: recombinant NSF, AAA ATPase cited for comparison (protein, UniProt P46459 1-744, looked up)
Vesicle-fusing ATPase: MAGRSMQAARCPTDELSLTNCAVVNEKDFQSGQHVIVRTSPNHRYTFTLKTHPSVVPGSIAFSLPQRKWAGLSIGQEIEVSLYTFDKAKQCIGTMTIEIDFLQKKSIDSNPYDTDKMAAEFIQQFNNQAFSVGQQLVFSFNEKLFGLLVKDIEAMDPSILKGEPATGKRQKIEVGLVVGNSQVAFEKAENSSLNLIGKAKTKENRQSIINPDWNFEKMGIGGLDKEFSDIFRRAFASRVFPPEIVEQMGCKHVKGILLYGPPGCGKTLLARQIGKMLNAREPKVVNGPEILNKYVGESEANIRKLFADAEEEQRRLGANSGLHIIIFDEIDAICKQRGSMAGSTGVHDTVVNQLLSKIDGVEQLNNILVIGMTNRPDLIDEALLRPGRLEVKMEIGLPDEKGRLQILHIHTARMRGHQLLSADVDIKELAVETKNFSGAELEGLVRAAQSTAMNRHIKASTKVEVDMEKAESLQVTRGDFLASLENDIKPAFGTNQEDYASYIMNGIIKWGDPVTRVLDDGELLVQQTKNSDRTPLVSVLLEGPPHSGKTALAAKIAEESNFPFIKICSPDKMIGFSETAKCQAMKKIFDDAYKSQLSCVVVDDIERLLDYVPIGPRFSNLVLQALLVLLKKAPPQGRKLLIIGTTSRKDVLQEMEMLNAFSTTIHVPNIATGEQLLEALELLGNFKDKERTTIAQQVKGKKVWIGIKKLLMLIEMSLQMDPEYRVRKFLALLREEGASPLDFD
For the molecule B1, the “ATPase activity of other AAA family members” value in data set [1] is on record as 0.08 ATP/sec.

B2: p80: baculovirus-expressed His-tagged S. purpuratus katanin p80 subunit (SEQ ID NO:2), contains WD40 repeats (protein, listed as Strongylocentrotus purpuratus)
chain: MATKRAWKLQELVAHSSNVNCLALGPMSGRVMVTGGEDKKVNLWAVGKQNCIISLSGHTSPVDSVKFNSSEELVVAGSQSGTMKIYDLEPAKIVRTLTGHRNSIRCMDFHPFGEFVASGSTDTNVKLWDVRRKGCIYTYKGHSDQVNMIKFSPDGKWLVTASEDTTIKLWDLTMGKLFQEFKNHTGGVTGIEFHPNEFLLASGSSDRTVQFWDLETFQLVSSTSPGASAVRSISFHPDGSYLFCSSQDMLHAFGWEPIRCFDTFSVFWGKVADTVIASTQLIGASFNATNVSVYVADLSRMSTTGIAQEPQSQPSKTPSGGAEEVPSKPLTASGRKNFVRERPHTTSSKQRQPDVKSEPERQSPTQDEGVKDDDATDIKDPDSYAKIFSPKTRVDHSPERNAQPFPAPLDVPGAQEPEPFKHPPKPAAAAAVAPVSRAPAPSASDWQPAQANPAPNRVPAATKPVPAQEVAPSRKPDPISTIIPSDRNKPANLDMDAFLPPAHAQQAPRVNAPASRKQSDSERIEGLRKGHDSMCQVLSSRHRNLDVVRAIWTAGDAKTSVESVVNMKDQAILVDILNIMLLKKSLWNLDMCVVVLPRLKELLSSKYENYVHTSCACLKLILKNFTSLFNQNIKCPPSGIDITREERYNKCSKCYSYLIATRGYVEEKQHVSGKLGSSFRELHLLLDQLE
modifications: His tag; katanin p80 subunit
As to B2, in data set [2] (concentrations 5-fold higher than those used for p60 (0.5 μM)), the “microtubule severing (in words)” value is recorded as “unable to sever microtubules”. Besides, in data set [3], the “ATPase activity (in words)” value is “no detectable ATPase activity”. Also, the “rate of microtubule disassembly, DAPI fluorescence decrease (in words)” value in the data set with microtubules was “did not cause a change in fluorescence”.

B3: p60: baculovirus-expressed His-tagged S. purpuratus katanin p60 subunit (SEQ ID NO:1), AAA ATPase (protein, listed as Strongylocentrotus purpuratus)
chain: MSVDEICENTKMGREYALLGNYETSLVYYQGVLQQIQKLLTSVHEPQRKHQWQTIRQELSQEYEHVKNITKTLNGFKSEPAAPEPAPNHGRAAPFSHHQHAAKPAAAEPARDPDVWPPPTPVDHRPSPPYQRAARKDPPRRSEPSKPANRAPGNDRGGRGPSDRRGDARSGGGGRGGARGSDKDKNRGGKSDKDKKAPSGEEGDEKKFDPAGYDKDLVENLERDIVQRNPNVHWADIAGLTEAKRLLEEAVVLPLWMPDYFKGIRRPWKGVLMVGPPGTGKTMLAKAVATECGTTFFNVSSASLTSKYHGESEKLVRLLFEMARFYAPSTIFIDEIDSICSKRGTGSEHEASRRVKSELLIQMDGVSGPSAGEESSKMVMVLAATNFPWDIDEALRRRLEKRIYIPLPEIDGREQLLRINLKEVPLADDIDLKSIAEKMDGYSGADITNVCRDASMMAMRRRIQGLRPEEIRHIPKEELNQPSTPADFLLALQKVSKSVGKEDLVKYMAWMEEFGSV
modifications: His tag; katanin p60 subunit
With B3, the “time until microtubules were completely disassembled” value in data set [2] (0.1 μM protein, 1 mM ATP) amounted to 5 min. For the same molecule, the “microtubule concentration at peak ATP turnover stimulation” value in data set [3] (decreases at higher microtubule concentrations) is listed as approximately 2 μM tubulin. Further, in the data set with microtubules, the “rate of microtubule disassembly, DAPI fluorescence decrease (in words)” value was “half as active as p60/p80”.

B4: Katanin: microtubule-severing heterodimer of 60 kDa and 80 kDa subunits; values match recombinant p60/p80 (protein)
chain 1: HHHHHHMSVDEICENTKMGREYALLGNYETSLVYYQGVLQQIQKLLTSVHEPQRKHQWQTIRQELSQEYEHVKNITKTLNGFKSEPAAPEPAPNHGRAAPFSHHQHAAKPAAAEPARDPDVWPPPTPVDHRPSPPYQRAARKDPPRRSEPSKPANRAPGNDRGGRGPSDRRGDARSGGGGRGGARGSDKDKNRGGKSDKDKKAPSGEEGDEKKFDPAGYDKDLVENLERDIVQRNPNVHWADIAGLTEAKRLLEEAVVLPLWMPDYFKGIRRPWKGVLMVGPPGTGKTMLAKAVATECGTTFFNVSSASLTSKYHGESEKLVRLLFEMARFYAPSTIFIDEIDSICSKRGTGSEHEASRRVKSELLIQMDGVSGPSAGEESSKMVMVLAATNFPWDIDEALRRRLEKRIYIPLPEIDGREQLLRINLKEVPLADDIDLKSIAEKMDGYSGADITNVCRDASMMAMRRRIQGLRPEEIRHIPKEELNQPSTPADFLLALQKVSKSVGKEDLVKYMAWMEEFGSV
chain 2: HHHHHHMATKRAWKLQELVAHSSNVNCLALGPMSGRVMVTGGEDKKVNLWAVGKQNCIISLSGHTSPVDSVKFNSSEELVVAGSQSGTMKIYDLEPAKIVRTLTGHRNSIRCMDFHPFGEFVASGSTDTNVKLWDVRRKGCIYTYKGHSDQVNMIKFSPDGKWLVTASEDTTIKLWDLTMGKLFQEFKNHTGGVTGIEFHPNEFLLASGSSDRTVQFWDLETFQLVSSTSPGASAVRSISFHPDGSYLFCSSQDMLHAFGWEPIRCFDTFSVFWGKVADTVIASTQLIGASFNATNVSVYVADLSRMSTTGIAQEPQSQPSKTPSGGAEEVPSKPLTASGRKNFVRERPHTTSSKQRQPDVKSEPERQSPTQDEGVKDDDATDIKDPDSYAKIFSPKTRVDHSPERNAQPFPAPLDVPGAQEPEPFKHPPKPAAAAAVAPVSRAPAPSASDWQPAQANPAPNRVPAATKPVPAQEVAPSRKPDPISTIIPSDRNKPANLDMDAFLPPAHAQQAPRVNAPASRKQSDSERIEGLRKGHDSMCQVLSSRHRNLDVVRAIWTAGDAKTSVESVVNMKDQAILVDILNIMLLKKSLWNLDMCVVVLPRLKELLSSKYENYVHTSCACLKLILKNFTSLFNQNIKCPPSGIDITREERYNKCSKCYSYLIATRGYVEEKQHVSGKLGSSFRELHLLLDQLE
On to B4, for which, in data set [3], the “basal ATPase activity” value was found to be 0.3 ATP/katanin/sec and the “maximal microtubule-stimulated ATPase rate” value is reported as 3 ATP/katanin/sec.
